Assay [1] addresses MOR FRET sensor (rat MOR with sYFP2 inserted after G267, truncated after T370, mTurquoise2 at the C-terminus) (rat) (UniProt P33535).
Assay [2] has the same target. This is another data set of the same source.

Some results are limits rather than exact numbers.

T370 sequence (P33535 1-370): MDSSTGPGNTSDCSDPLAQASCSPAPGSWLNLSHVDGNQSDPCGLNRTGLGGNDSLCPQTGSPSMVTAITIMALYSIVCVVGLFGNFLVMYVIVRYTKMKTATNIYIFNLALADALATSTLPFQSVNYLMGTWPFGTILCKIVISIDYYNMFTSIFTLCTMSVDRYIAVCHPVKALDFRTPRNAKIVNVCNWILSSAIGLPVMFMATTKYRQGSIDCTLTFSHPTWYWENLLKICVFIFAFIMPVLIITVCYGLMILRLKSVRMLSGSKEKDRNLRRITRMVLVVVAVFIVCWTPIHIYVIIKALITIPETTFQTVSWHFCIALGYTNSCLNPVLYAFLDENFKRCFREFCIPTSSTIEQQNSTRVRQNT

With DAMGO (peptide), in assay [1], the half-time of deactivation of the MOR FRET sensor after washout of 100 µM agonist (single-cell FRET) was below 10 s; the on-rate Kon, calculated from the Koff of sensor deactivation and the EC50 (single-cell FRET, 100 µM agonist) was 167000 M⁻¹ s⁻¹. For the same substance, the EC50 of the agonist-induced change of the FRET emission ratio of the MOR FRET conformation sensor (concentration-response, 96-well plate reader) in assay [2] was 430 nM.

In assay [1], Met-enkephalin (peptide) displayed a half-time of deactivation of the MOR FRET sensor after washout of 100 µM agonist (single-cell FRET) below 10 s.

The values above are taken from publication PMC11806106.
